Laboratory results from patent US20060222643A1 (Chugai, published 2006).
No end group written: not given here.

Legend:
[1] = target: T1, cynomolgus monkey Mpl expressed on CHO cells (CHO-monkey Mpl) (cynomolgus monkey, UniProt P40238 26-635 (human entry)); experiment: flow cytometry on CHO cells
T1 construct: pCXND3-monkey Mpl-His in CHO-DG44; also called monkey Mpl-His
T1 chain: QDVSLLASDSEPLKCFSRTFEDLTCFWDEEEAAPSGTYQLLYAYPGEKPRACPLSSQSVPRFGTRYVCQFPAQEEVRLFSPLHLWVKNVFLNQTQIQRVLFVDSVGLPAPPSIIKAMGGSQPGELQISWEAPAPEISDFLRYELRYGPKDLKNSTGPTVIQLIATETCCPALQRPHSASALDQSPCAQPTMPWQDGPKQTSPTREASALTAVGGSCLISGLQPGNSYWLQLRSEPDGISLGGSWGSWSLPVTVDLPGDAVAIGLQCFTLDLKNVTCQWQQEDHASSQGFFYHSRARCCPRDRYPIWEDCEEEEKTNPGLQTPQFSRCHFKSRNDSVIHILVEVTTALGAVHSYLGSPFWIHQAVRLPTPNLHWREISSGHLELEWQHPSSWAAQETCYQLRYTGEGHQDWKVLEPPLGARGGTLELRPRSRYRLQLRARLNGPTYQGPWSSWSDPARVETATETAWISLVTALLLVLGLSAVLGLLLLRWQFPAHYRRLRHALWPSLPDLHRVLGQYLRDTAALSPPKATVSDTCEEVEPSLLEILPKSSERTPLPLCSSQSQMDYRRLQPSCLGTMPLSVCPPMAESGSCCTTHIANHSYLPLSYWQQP

[2] = target: T2, human Mpl-IgG Fc fusion protein (human, UniProt P40238 26-491); experiment: SPR, Biacore 2000, human Mpl-IgG Fc immobilized on CM5 by amine coupling, 1.25 to 20 µg/mL VB22B IgG injected
T2 construct: Expressed in CHO-DG44 with a 19-residue signal peptide from a human IgG H chain variable region (left out); also called hMpl-Fc; hMPL-Fc; not shown: Fc region of human IgG-gamma1 (a region downstream of Asp 216)
T2 sequence: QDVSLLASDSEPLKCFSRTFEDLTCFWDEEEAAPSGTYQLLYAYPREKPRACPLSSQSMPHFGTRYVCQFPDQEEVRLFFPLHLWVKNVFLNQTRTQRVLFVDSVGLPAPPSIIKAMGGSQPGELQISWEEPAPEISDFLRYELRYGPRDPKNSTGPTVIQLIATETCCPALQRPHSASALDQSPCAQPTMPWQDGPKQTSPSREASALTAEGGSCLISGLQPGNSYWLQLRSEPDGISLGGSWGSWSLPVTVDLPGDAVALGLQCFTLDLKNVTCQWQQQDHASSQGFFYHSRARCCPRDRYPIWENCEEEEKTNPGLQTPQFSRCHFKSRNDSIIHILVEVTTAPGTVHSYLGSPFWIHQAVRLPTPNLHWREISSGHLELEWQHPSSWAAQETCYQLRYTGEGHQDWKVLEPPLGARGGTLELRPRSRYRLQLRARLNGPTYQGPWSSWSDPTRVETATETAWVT
Method: Since the anti-human Mpl antibody VB22B binds to soluble recombinant Mpl, kinetic analyses of the antigen-antibody reaction between VB22B IgG and human Mpl-IgG Fc fusion protein were carried out as described in Example 1.4. The Sensor Chip CM5 (Biacore) was placed in Biacore 2000 (Biacore), and human Mpl-IgG Fc fusion protein was immobilized onto the chip by amine-coupling methods. Then, 1.25 to 20 μg/mL of VB22B IgG solution was prepared using HBS-EP Buffer (Biacore), and injected over the chip surface for 2 min to reveal the binding region. Then, HBS-EP Buffer was injected over the chip surface for 2 min to reveal the dissociation region. VB22B IgG bound to the human Mpl-IgG Fc fusion protein on the sensor chip was removed by injecting 10 mM NaOH over the sensor chip for 15 sec, and the chip was recovered. HBS-EP Buffer was used as the running buffer, and the flow rate was 20 μL/min. Using the BIAevaluation Version 3.1 (Biacore) software, the reaction rate constant at each concentration was calculated from the sensorgrams.

[3] = target: T3, MG10 (Gln213 to Ala231)-GST fusion protein (human, also: fused with GST); experiment: SPR, Biacore 3000, MG10-GST immobilized on CM5, Bivalent analyte model (constants as for the monovalent antibody), triplicate
T3 construct: As MG1; also called MG10-GST fusion protein; GST fusion protein containing MG10; not shown: glutathione-S-transferase of vector pGEX-4T-3 (Amersham Biosciences)
T3 chain: QPTMPWQDGPKQTSPSREA
Method: The Sensor Chip CM5 (Biacore) was placed in Biacore 3000 (Biacore), and MG10-GST fusion protein was immobilized onto the chip by amine-coupling methods. HBS-EP Buffer (Biacore) was used as the running buffer, and the flow rate was 20 μL/min. 5.5 to 175.0 nM of VB22B IgG solution was prepared using HBS-EP Buffer, and injected over each of the chip surfaces for 2 min to obtain the binding region at the respective concentrations. Then, dissociation region for the 2 minutes was measured. VB22B IgG bound to the MG10-GST fusion protein on the sensor chip was removed by injecting 20 mM HCl over the sensor chip for 1 min, and the chip was recovered. Similarly, 4.7 to 150.1 nM of VB22B sc(Fv)2, 5.3 to 168.9 nM of hVB22B q-wz5 sc(Fv)2, and 4.9 to 156.8 nM of hVB22B u2-wz4 sc(Fv)2 were prepared and injected over the chip surfaces onto which MG10-GST fusion protein was immobilized, and the measurement was carried out.
All the antibodies used were bivalent antibodies, and thus the sensorgrams at each concentration were obtained in the presence of both monovalent and bivalent bindings. In this context, the reaction rate constant was determined as that for the monovalent antibody by analysis using the Bivalent analyte model of BIAevaluation ver.3.1 software (Biacore). The above analysis was carried out in triplicates for each antibody. The binding rate constant (ka), dissociation rate constant (kd), and dissociation constant (KD) were determined as those for the monovalent antibody by the procedure described above. The constants are indicated below in Table 1.

B1: anti-human Mpl antibody VB22B IgG (antibody, V domains shown)
VH: QVQLQQSGPELVKPGASVKISCKASGYAFTNSWMNWVKQRPGKGLEWIGRIYPGDGETIYNGKFRVKATLTADKSSSTAYMDISSLTSEDSAVYFCARGYDDYSFAYWGQGTLVTVSA
VL: DIVMTQAAPSIPVTPGESVSISCRSSKSLLHSNGNTYLYWFLQRPGQSPQLLIYRMSNLASGVPDRFSGSGSGTAFTLRISRVEAEDVGVYYCMQHIEYPFTFGSGTKLEIK
notes: also called murine antibody VB22B
For B1, the binding result [1] was “binds”, the Kd [2] was 1.67 nM and the Kd [3] was 11.5 nM. For the same binder, the koff [3] was 0.0011 s⁻¹ and the kon [3] was 96000 M⁻¹ s⁻¹.
